Experimental data reported in PMC10100024 (British Journal of Pharmacology, 2022).

How the values were obtained:
Test in all cases: FRET or BRET
[1] = biological target: T1, pplss-3HA-hCB1 receptor, wild type (human, UniProt P21554 1-472)
[2] = biological target: T2, pplss-3HA-hCB1 receptor S462A/T465A (D2) (human, UniProt P21554 1-472, S462A | T465A)
[3] = biological target: T3, pplss-3HA-hCB1 receptor S425A/S429A (D1) (human, UniProt P21554 1-472, S425A | S429A)
[4] = biological target: T4, pplss-3HA-hCB1 receptor S462A/S464A/T465A (T) (human, UniProt P21554 1-472, S462A | S464A | T465A)
[5] = biological target: T5, pplss-3HA-hCB1 receptor S464A/T467A (D3) (human, UniProt P21554 1-472, S464A | T467A)
[6] = biological target: T6, pplss-3HA-hCB1 receptor T465A/S468A (D4) (human, UniProt P21554 1-472, T465A | S468A)
[7] = biological target: T1, pplss-3HA-hCB1 receptor, wild type; remark: listed apart in the source
[8] = biological target: T2, pplss-3HA-hCB1 receptor S462A/T465A (D2); remark: listed apart in the source
[9] = biological target: T3, pplss-3HA-hCB1 receptor S425A/S429A (D1); remark: listed apart in the source
[10] = biological target: T4, pplss-3HA-hCB1 receptor …; remark: listed apart in the source
[11] = biological target: T5, pplss-3HA-hCB1 receptor S464A/T467A (D3); remark: listed apart in the source
[12] = biological target: T6, pplss-3HA-hCB1 receptor T465A/S468A (D4); remark: listed apart in the source

B1: Nluc-(human)-Arrestin-2-Sp1 (natural protein, UniProt P49407 1-418, looked up)
chain: MGDKGTRVFKKASPNGKLTVYLGKRDFVDHIDLVDPVDGVVLVDPEYLKERRVYVTLTCAFRYGREDLDVLGLTFRKDLFVANVQSFPPAPEDKKPLTRLQERLIKKLGEHAYPFTFEIPPNLPCSVTLQPGPEDTGKACGVDYEVKAFCAENLEEKIHKRNSVRLVIRKVQYAPERPGPQPTAETTRQFLMSDKPLHLEASLDKEIYYHGEPISVNVHVTNNTNKTVKKIKISVRQYADICLFNTAQYKCPVAMEEADDTVAPSSTFCKVYTLTPFLANNREKRGLALDGKLKHEDTNLASSTLLREGANREILGIIVSYKVKVKLVVSRGGLLGDLASSDVAVELPFTLMHPKPKEEPPHREVPENETPVDTNLIELDTNDDDIVFEDFARQRLKGMKDDKEEEEDGTGSPQLNNR
Emax of net translocation (%WT) [1]: 100 %WT
Emax of net translocation (%WT) [2]: 32.3 %WT
Emax of net translocation (%WT) [3]: 72.3 %WT
Emax of net translocation (%WT) [4]: 25.6 %WT
Emax of net translocation (%WT) [5]: 32.9 %WT
Emax of net translocation (%WT) [6]: 61.6 %WT
initial rate of translocation [7]: 0.000136 ΔBRET ratio per second
steady state (ΔBRET ratio) [7]: 0.036 ΔBRET ratio
translocation half time [7]: 185 s
initial rate of translocation [8]: 3.77e-05 ΔBRET ratio per second
steady state (ΔBRET ratio) [8]: 0.012 ΔBRET ratio
translocation half time [8]: 286 s
initial rate of translocation [9]: 5.81e-05 ΔBRET ratio per second
steady state (ΔBRET ratio) [9]: 0.036 ΔBRET ratio
translocation half time [9]: 569 s
initial rate of translocation [10]: 3.32e-05 ΔBRET ratio per second
steady state (ΔBRET ratio) [10]: 0.014 ΔBRET ratio
translocation half time [10]: 354 s
initial rate of translocation [11]: 3.06e-05 ΔBRET ratio per second
steady state (ΔBRET ratio) [11]: 0.014 ΔBRET ratio
translocation half time [11]: 354 s
initial rate of translocation [12]: 7.31e-05 ΔBRET ratio per second
steady state (ΔBRET ratio) [12]: 0.022 ΔBRET ratio
translocation half time [12]: 210 s
